According to patent publication US20250243290A1:
Where “and” joins values, the source holds several entries; their conditions need not be identical. Equal values may be shown once. Read-outs that look alike come from different tables or passages of the source.

Columns and labels:
Test in all cases: peptide-array ELISA [Con't]
[1] = target: TSDVV2…
[2] = target: …2…
LWNWVPE2…2T2 = target: LWNWVPE2…2T2
PE2LS2…2RPGW = target: PE2LS2…2RPGW
CG2RL2APLRK2…2TSTSPTRC = target: CG2RL2APLRK2…2TSTSPTRC
RLCAPLRK2…2APGTFSN = target: RLCAPLRK2…2APGTFSN
2LS2…2TREQNRIC = target: 2LS2…2TREQNRIC
[3] = target: KQEGCRL2…
[4] = target: 2…
[5] = target: CQI2…2…
[6] = target: EGCRL2…
…2RPG = target: …2RPG
…2…2R = target: …2…2R
[7] = target: WY2…2…
…2RP = target: …2RP
E2LS2…2TREQNRIC = target: E2LS2…2TREQNRIC
WVPE2…2T = target: WVPE2…2T
VPE2LS2…2RPG = target: VPE2LS2…2RPG
VPE2LSCGSR2…2T = target: VPE2LSCGSR2…2T
WVPE2…2T2 = target: WVPE2…2T2
[8] = target: 2…2…
[9] = target: WY2…
CAPLRK2…2APGTFSN = target: CAPLRK2…2APGTFSN
WNWVPE2…2T = target: WNWVPE2…2T
[10] = target: SKQEGCRL2…
[11] = target: VPE2LS2…2…
E2LS2…2RPG = target: E2LS2…2RPG
PE2LSCGSR2…2 = target: PE2LSCGSR2…2
NWVPE2…2T = target: NWVPE2…2T
WVPE2…2 = target: WVPE2…2
2LS2…2RP = target: 2LS2…2RP
NRI2…2RL = target: NRI2…2RL
[12] = target: …2…; remark: listed apart in the source
[13] = target: C2LS2GSR2…2…
2…2TREQNRIC = target: 2…2TREQNRIC
…2LS2…2TSTSPTRC = target: …2LS2…2TSTSPTRC
CTSSTDI2RPHQI2…2TSTSPTRC = target: CTSSTDI2RPHQI2…2TSTSPTRC
[14] = target: QEGCRL2…
CQA2TREQNRI2T2…2RLC = target: CQA2TREQNRI2T2…2RLC
[15] = target: C22SK2…2CNASMDAV2TSTSPTRC
…22SK2CNASMDAV2TSTSPTRC = target: …22SK2CNASMDAV2TSTSPTRC
[16] = target: C22SK2…2CAPLRK2…
CQTAQM22SK2…2RLC = target: CQTAQM22SK2…2RLC
…2TREQNRIC = target: …2TREQNRIC
E2LS2…2…2 = target: E2LS2…2…2
[17] = target: Y2…
[18] = target: CQTAQM22SK2SPGQHCQA2TREQNRI2T2RPC
2LSCGSR2…2T2 = target: 2LSCGSR2…2T2
[19] = target: PE2LSCGSR2…
[20] = target: DI2…
[21] = target: C22SK2…2CAV2…
2LS2…2R = target: 2LS2…2R
[22] = target: 2LS2…2…
CGSR2…2 = target: CGSR2…2

Chain of …2RP (peptide, as listed by the source): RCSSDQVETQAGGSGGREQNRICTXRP
Chain of WY2… (peptide, as listed by the source): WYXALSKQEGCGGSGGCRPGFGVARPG
Chain of EGCRL2… (peptide, as listed by the source): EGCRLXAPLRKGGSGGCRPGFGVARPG
Chain of 2… (peptide, as listed by the source): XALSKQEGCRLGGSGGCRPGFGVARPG
Chain of SKQEGCRL2… (peptide, as listed by the source): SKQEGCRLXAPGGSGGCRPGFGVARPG
Chain of …2TREQNRIC (peptide, as listed by the source): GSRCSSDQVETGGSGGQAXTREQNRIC
Chain of DI2… (peptide, as listed by the source): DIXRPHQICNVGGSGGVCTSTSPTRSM
Chain of QEGCRL2… (peptide, as listed by the source): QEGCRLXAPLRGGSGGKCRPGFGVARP
Chain of Y2… (peptide, as listed by the source): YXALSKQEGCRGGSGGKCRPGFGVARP
Chain of KQEGCRL2… (peptide, as listed by the source): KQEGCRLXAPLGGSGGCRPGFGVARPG

In the case of agonistic TNFR2 antibody MR2-1, the Raw luminescence data [1] is reported as 323, the Raw luminescence data [2] is reported as 342 and 337 and the Raw luminescence data (LWNWVPE2…2T2) is reported as 353. The Raw luminescence data (PE2LS2…2RPGW) was 305, the Raw luminescence data (CG2RL2APLRK2…2TSTSPTRC) was 287 and the Raw luminescence data (RLCAPLRK2…2APGTFSN) was 320. The Raw luminescence data (2LS2…2TREQNRIC) was 288, the Raw luminescence data [3] was 352 and the Raw luminescence data [4] was 351. The Raw luminescence data [5] was 286, the Raw luminescence data [6] was 359 and the Raw luminescence data (…2RPG) was 341 and 293. For the same substance, the Raw luminescence data (…2…2R) was 299, the Raw luminescence data [7] was 287 and the Raw luminescence data (…2RP) was 324. The Raw luminescence data (E2LS2…2TREQNRIC) was 299, the Raw luminescence data (WVPE2…2T) was 312 and the Raw luminescence data (VPE2LS2…2RPG) was 295. The Raw luminescence data (VPE2LSCGSR2…2T) was 292, the Raw luminescence data (WVPE2…2T2) was 287 and the Raw luminescence data [8] was 299. It also gave a Raw luminescence data [9] of 344, a Raw luminescence data (CAPLRK2…2APGTFSN) of 293 and a Raw luminescence data (WNWVPE2…2T) of 323. The Raw luminescence data [10] was 288, the Raw luminescence data [11] was 301 and the Raw luminescence data (E2LS2…2RPG) was 314. It also gave a Raw luminescence data (PE2LSCGSR2…2) of 312, a Raw luminescence data (NWVPE2…2T) of 283 and a Raw luminescence data (WVPE2…2) of 317. It also gave a Raw luminescence data (2LS2…2RP) of 362, a Raw luminescence data (NRI2…2RL) of 296 and a Raw luminescence data [12] of 180. The Raw luminescence data [13] was 187, the Raw luminescence data (2…2TREQNRIC) was 184 and the Raw luminescence data (…2LS2…2TSTSPTRC) was 188. The Raw luminescence data (CTSSTDI2RPHQI2…2TSTSPTRC) was 181, the Raw luminescence data [14] was 173 and the Raw luminescence data (CQA2TREQNRI2T2…2RLC) was 178. The Raw luminescence data [15] was 181, the Raw luminescence data (…22SK2CNASMDAV2TSTSPTRC) was 173 and the Raw luminescence data [16] was 191. The Raw luminescence data (CQTAQM22SK2…2RLC) was 179, the Raw luminescence data (…2TREQNRIC) was 176 and the Raw luminescence data (E2LS2…2…2) was 181. It also gave a Raw luminescence data [17] of 175, a Raw luminescence data [18] of 176 and a Raw luminescence data (2LSCGSR2…2T2) of 179. For the same substance, the Raw luminescence data [19] was 180, the Raw luminescence data [20] was 174 and the Raw luminescence data [21] was 181. For the same substance, the Raw luminescence data (2LS2…2R) was 181, the Raw luminescence data [22] was 190 and the Raw luminescence data (CGSR2…2) was 172.
